Measured values reported in doi:10.1101/2023.03.07.531120 (bioRxiv, 2023).
Where no end group is shown, it is not given here. The star is where a group is joined. FITC = O=C1OC2(c3ccc(O)cc3Oc3cc(O)ccc32)c2ccc(NC(=S)*)cc21; Oleoyl = CCCCCCCC/C=C\CCCCCCCC(=O)*

Target: T1, AP2 μ2 subunit (in the mouse AP2 core) (mouse, UniProt P84091 1-435)
T1 sequence: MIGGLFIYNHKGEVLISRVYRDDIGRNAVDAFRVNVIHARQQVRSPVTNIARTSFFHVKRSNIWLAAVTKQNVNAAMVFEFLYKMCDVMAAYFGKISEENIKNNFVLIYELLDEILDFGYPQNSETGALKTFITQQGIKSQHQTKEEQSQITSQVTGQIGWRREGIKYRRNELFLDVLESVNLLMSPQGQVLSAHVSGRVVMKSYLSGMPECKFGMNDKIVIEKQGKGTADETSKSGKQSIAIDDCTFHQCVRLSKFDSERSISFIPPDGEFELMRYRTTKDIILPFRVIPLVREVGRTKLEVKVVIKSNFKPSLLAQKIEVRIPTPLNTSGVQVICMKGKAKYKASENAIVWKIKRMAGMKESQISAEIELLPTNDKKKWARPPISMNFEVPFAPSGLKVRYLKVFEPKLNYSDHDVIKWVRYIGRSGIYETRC
Assay: cryo-EM structure

Oleoyl-SK(FITC)KVTRRPKASDYQRL [Lipidated YxxΦ-cargo peptide of Tgn38 (Oleic acid-S{Lys(FITC)}KVTRRPKASDYQRL)]: binds.
